These results are taken from article PMC9006656.

One may read the koff as a measure of how fast the partners let go of each other. A higher koff goes with fast dissociation. As usually defined, the kon is the rate constant with which the complex forms. Read a high kon as faster complex formation.

The target in experiment [1] is GST-tagged human FcRn-β2m (human) (UniProt P55899).
The target in experiment [2] is hu4D5 full-length human IgG1 antibody with acid-Fc (human). In words: BLI; antibody captured on anti-CH1 FAB2G tips; FcγRIIIa V158 (62.5-2000 nM) or F158 (156-5000 nM) in solution, pH 6.5; 1:1 model, full association and initial 5 s of dissociation; Kd = koff/kon; observed values. (BLI is a label-free optical method that tracks binding on a fibre tip over time.)
Experiment [3] concerns the target hu4D5 full-length human IgG1 antibody with wild-type Fc (human). The description is as above.
Experiment [4] has as its target hu4D5 full-length human IgG1 antibody with acid-Fc (human). In words: BLI; same FAB2G experiment at pH 7.4, steady state analysis: equilibrium responses fit to a Langmuir isotherm; apparent.
The target of experiment [5] is hu4D5 full-length human IgG1 antibody with wild-type Fc (human). The description is as above.
Experiment [6] deals with hu4D5 full-length human IgG1 antibody with acid-Fc (human). Kind of experiment: BLI; same FAB2G experiment at pH 6.5, steady state analysis: equilibrium responses fit to a Langmuir isotherm; apparent.
The target of experiment [7] is hu4D5 full-length human IgG1 antibody with wild-type Fc (human). The description is as above.
The target in experiment [8] is hu4D5 full-length human IgG1 antibody with acid-Fc (human). Kind of experiment: BLI; antibody captured on anti-CH1 FAB2G tips; FcγRIIIa V158 (62.5-2000 nM) or F158 (156-5000 nM) in solution, pH 7.4; 1:1 model, full association and initial 5 s of dissociation; Kd = koff/kon; observed values.
For experiment [9], the target named is hu4D5 full-length human IgG1 antibody with wild-type Fc (human). The experiment is described as above.
The target of experiment [10] is wild-type human IgG1 Fc displayed on the CHO cell surface (human). Kind of experiment: flow cytometry on cells; Fc variants displayed on CHO-T cells as monoclonal populations; stained with monomeric FcγRIIIa V158 on fluorescent streptavidin (50 nM in Fig. 7A) in flow buffer at pH 6.5; percent of cells binding. (In general: In flow cytometry, cells or beads pass a laser one at a time.)
wild-type human IgG1 Fc displayed on the CHO cell surface (human), sequence (P01857 1-350): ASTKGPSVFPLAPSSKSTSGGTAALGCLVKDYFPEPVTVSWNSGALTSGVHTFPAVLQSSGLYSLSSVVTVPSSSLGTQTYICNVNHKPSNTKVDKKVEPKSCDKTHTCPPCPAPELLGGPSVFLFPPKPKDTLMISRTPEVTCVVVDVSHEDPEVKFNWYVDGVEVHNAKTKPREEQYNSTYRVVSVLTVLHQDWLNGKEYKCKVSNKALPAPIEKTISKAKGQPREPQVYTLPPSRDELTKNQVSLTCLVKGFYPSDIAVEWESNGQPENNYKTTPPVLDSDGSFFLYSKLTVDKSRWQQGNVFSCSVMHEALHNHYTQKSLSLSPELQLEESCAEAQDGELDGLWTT

UniProt P55899, sequence (P55899 24-365, chain 1 of 2): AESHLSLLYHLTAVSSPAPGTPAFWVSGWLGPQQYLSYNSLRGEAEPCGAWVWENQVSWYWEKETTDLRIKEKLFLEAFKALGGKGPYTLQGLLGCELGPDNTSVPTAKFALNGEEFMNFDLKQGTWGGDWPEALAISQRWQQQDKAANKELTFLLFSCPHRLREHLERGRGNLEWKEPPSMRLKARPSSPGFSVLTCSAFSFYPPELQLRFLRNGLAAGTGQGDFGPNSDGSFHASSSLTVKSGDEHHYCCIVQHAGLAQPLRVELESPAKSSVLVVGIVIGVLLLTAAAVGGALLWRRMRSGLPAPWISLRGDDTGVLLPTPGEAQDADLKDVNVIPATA
UniProt P55899, sequence (P61769 21-119, chain 2 of 2, further chain): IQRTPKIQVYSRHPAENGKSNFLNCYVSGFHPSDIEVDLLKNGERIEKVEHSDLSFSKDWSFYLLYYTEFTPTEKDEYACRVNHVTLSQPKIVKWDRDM

In turn, “hu4D5 full-length human IgG1 antibody with wild-type Fc” returned a serum beta elimination half-life (t1/2) in homozygous Tg32 mice expressing human FcRn, 2 mg/kg intraperitoneally in [1] of 209 h.

The substance “hu4D5 human IgG1 antibody with the M252Y/S254T/T256E (YTE) substitutions” showed a serum beta elimination half-life (t1/2) in homozygous Tg32 mice expressing human FcRn, increase as compared to wild-type in [1] of 1.4 fold.

In the case of “human FcγRIIIa F158, AVI and His tagged, biotinylated (from UniProt P08637 17-254) (receptor)”, the Kd in experiment [2] came out at 538 nM; in [3], 401 nM; in [4] it was 1090 nM; in experiment [5] it was 513 nM; in experiment [6], 603 nM; in experiment [7], 418 nM. Besides, the Kd in experiment [8] came to 909 nM; in [9], 484 nM. Further, the dissociation rate constant (koff) came out at 0.177 s⁻¹ in experiment [2], 0.119 s⁻¹ in [3], 0.226 s⁻¹ in experiment [8] and 0.134 s⁻¹ in [9]. Also, the kon in [2] worked out at 340000 M⁻¹ s⁻¹; in experiment [3] it was 300000 M⁻¹ s⁻¹; in [8], 250000 M⁻¹ s⁻¹; in [9], 280000 M⁻¹ s⁻¹.

As for “biotinylated FcγRIIIa (allele V158) monomerically bound to fluorescent streptavidin (receptor)”, in experiment [10], the ratio of the percent of cells binding at pH 6.5 versus the percent binding at pH 7.4 is 1.
